Experimental data as given in patent US20200317768A1 (published 2020).
Where a chain is given by its changes, count along the chain named.

T1: cynomolgus monkey FcγRIIa1 extracellular domain, His-tagged (cynomolgus monkey)
T1 construct: also called cyno FcγRIIa1; cynoFcgRIIa1; not shown: C-terminal His-tag
T1 chain: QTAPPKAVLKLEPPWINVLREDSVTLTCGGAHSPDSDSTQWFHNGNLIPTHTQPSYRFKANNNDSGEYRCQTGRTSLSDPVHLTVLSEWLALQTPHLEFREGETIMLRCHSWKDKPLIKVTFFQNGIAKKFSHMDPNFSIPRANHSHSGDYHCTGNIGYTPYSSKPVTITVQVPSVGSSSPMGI

T2: cynomolgus monkey FcγRIIb extracellular domain, His-tagged (cynomolgus monkey)
T2 construct: also called cyno FcγRIIb; cynoFcγRIIb; not shown: C-terminal His-tag
T2 chain: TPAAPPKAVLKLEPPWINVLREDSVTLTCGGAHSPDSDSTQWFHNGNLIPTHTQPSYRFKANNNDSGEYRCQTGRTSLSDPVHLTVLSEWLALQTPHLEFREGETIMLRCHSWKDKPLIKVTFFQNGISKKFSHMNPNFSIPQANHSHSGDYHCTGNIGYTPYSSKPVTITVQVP

T3: human FcγRIIaH extracellular domain, His-tagged (human, UniProt P12318 34-217)
T3 construct: also called human FcγRIIa (type H); FcgRIIaH; not shown: C-terminal His-tag
T3 sequence: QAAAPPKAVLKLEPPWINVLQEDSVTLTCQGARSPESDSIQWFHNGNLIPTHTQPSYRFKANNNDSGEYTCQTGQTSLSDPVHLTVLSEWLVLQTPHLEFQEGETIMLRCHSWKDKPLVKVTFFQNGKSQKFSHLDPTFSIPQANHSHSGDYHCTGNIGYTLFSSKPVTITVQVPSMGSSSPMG

T4: human FcγRIIaR extracellular domain, His-tagged (human, UniProt P12318 34-217)
T4 construct: also called human FcγRIIa (type R); FcgRIIaR; not shown: C-terminal His-tag
T4 chain: T3 sequence with H134R

T5: cynomolgus monkey FcγRIIa2 extracellular domain, His-tagged (cynomolgus monkey)
T5 construct: also called cyno FcγRIIa2; cynoFcgRIIa2; not shown: C-terminal His-tag
T5 chain: T1 chain with P95T, T121A, I127K, A128S, K130N, D135N, R142Q

T6: cynomolgus monkey FcγRIIIaS extracellular domain, His-tagged (cynomolgus monkey, UniProt Q8SPW2 21-206 at identity 1.00))
T6 construct: also called cyno FcγRIIIaS; cynoFcγRIIIaS; not shown: C-terminal His-tag
T6 chain: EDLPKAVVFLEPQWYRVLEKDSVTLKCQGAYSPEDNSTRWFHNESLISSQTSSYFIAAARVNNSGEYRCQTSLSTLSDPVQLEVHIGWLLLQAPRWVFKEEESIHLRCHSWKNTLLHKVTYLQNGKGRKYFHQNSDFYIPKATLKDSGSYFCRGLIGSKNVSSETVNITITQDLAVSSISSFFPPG

T7: cynomolgus monkey FcγRIIa3 extracellular domain, His-tagged (cynomolgus monkey)
T7 construct: also called cyno FcγRIIa3; cynoFcgRIIa3; not shown: C-terminal His-tag
T7 chain: T1 chain with P95T, T121A, A128S, H133P, D135N

B1: M103205H795-MY470/M103202L889-SK1 (antibody, human IgG1, kappa)
heavy: QVTLKESGPVLVKPTETLTLTCTVSGIDLSHDDISWVRQAPGKGLEWVGIISYAGSTYYASWAKGRLTISKDTSKNQVVLTMTNMDPVDTATYYCARGVPAYSHGGDLWGQGTLVTVSSASTKGPSVFPLAPSSKSTSGGTAALGCLVKDYFPEPVTVSWNSGALTSGVHTFPAVLQSSGLYSLSSVVTVPSSSLGTQTYICNVNHKPSNTKVDKKVEPKSCDKTHTCPPCPQPELLTGPSVFLFPPKPKDTLMISRTPEVTCVVVDVSDEDPEVKFNWYVDGVEVHNAKTKPREEQYNSTYRVVSVLTVLHQDWLNGKEYKCKVSNKALPKPIEKTISKAKGQPREPQVYTLPPSREEMTKNQVSLTCLVKGFYPSDIAVEWESNGQPENNYKTTPPVLDSDGSFFLYSKLTVDKSRWQQGNVFSCSVMHEALHNHYTQKSLSLSP
light: DIVMTQSPATLSLSPGERATLSCTSSQSVYHANWLSWFQQKPGQPPKLLIYWASTLAYGVPSRFSGSGSGTDFTLTISSLQPEDAATYYCAGGYGGGRYAFGQGTKVEIKRTVAAPSVFIFPPSDEQLKSGTASVVCLLNNFYPREAKVQWKVDNALQSGNSQESVTEQDSKDSTYSLSSTLTLSKADYEKHKVYACEVTHQGLSSPVTKSFNRGEC
notes: copies: 2 + 2
B2: M103205H795-MY476/M103202L889-SK1 (antibody, human IgG1, kappa)
heavy: B1 heavy with Q233Y
light: B1 light
notes: copies: 2 + 2
B3: M103205H795-MY471/M103202L889-SK1 (antibody, human IgG1, kappa)
heavy: B1 heavy with Q233R
light: B1 light
notes: copies: 2 + 2
B4: M103205H795-MY473/M103202L889-SK1 (antibody, human IgG1, kappa)
heavy: B1 heavy with Q233T
light: B1 light
notes: copies: 2 + 2
B5: M103205H795-MY474/M103202L889-SK1 (antibody, human IgG1, kappa)
heavy: B1 heavy with Q233V
light: B1 light
notes: copies: 2 + 2
B6: M103205H795-MY472/M103202L889-SK1 (antibody, human IgG1, kappa)
heavy: B1 heavy with Q233S
light: B1 light
notes: copies: 2 + 2
B7: M103205H795-MY475/M103202L889-SK1 (antibody, human IgG1, kappa)
heavy: B1 heavy with Q233W
light: B1 light
notes: copies: 2 + 2

target: T8, human FcγRIIIaV extracellular domain, His-tagged (human, UniProt P08637 17-208); assay: SPR (BIACORE); KD of SG1 divided by KD of variant;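 further: relative to parent M103205H795-SG1 carrying the SG1 human heavy chain constant region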
T8 construct: also called FcgRIIIaV; not shown: C-terminal His-tag
T8 sequence (P08637 17-208 F176V): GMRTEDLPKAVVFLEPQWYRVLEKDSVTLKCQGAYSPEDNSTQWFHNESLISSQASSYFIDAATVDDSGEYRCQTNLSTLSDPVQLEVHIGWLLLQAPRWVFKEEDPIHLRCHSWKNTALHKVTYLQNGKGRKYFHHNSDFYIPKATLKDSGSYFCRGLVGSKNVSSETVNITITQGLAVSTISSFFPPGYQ

Row | KD fold (SG1 = 1) [fold] | Binder
1 | 0.2 | B1
2 | 0.1 | B2
3 | 0.2 | B3
4 | 0.2 | B4
5 | 0.2 | B5
6 | 0.1 | B6
7 | 0.2 | B7

Target: T1, cynomolgus monkey FcγRIIa1 …
Assay: SPR (BIACORE); KD of SG1 divided by KD of variant;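 further: relative to parent M103205H795-SG1 carrying the SG1 human heavy chain constant region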

Row | KD fold (SG1 = 1) [fold] | Binder
8 | 1.5 | B1
9 | 2.3 | B2
10 | 1.2 | B3
11 | 2 | B4
12 | 1.6 | B5
13 | 1.5 | B6
14 | 3.2 | B7

Target: T2, cynomolgus monkey FcγRIIb extracellular …
Assay: SPR (BIACORE), captured antibody, FcgR as analyte

Row | Kd [nM] | Binder
15 | 550 | B1
16 | 590 | B2
17 | 700 | B3
18 | 580 | B4
19 | 500 | B5
20 | 660 | B6
21 | 270 | B7

target: T3, human FcγRIIaH extracellular domain, …; assay: SPR (BIACORE), captured antibody, FcgR as analyte

Row | Kd [nM] | Binder
22 | 220 | B1
23 | 140 | B2
24 | 230 | B3
25 | 220 | B4
26 | 170 | B5
27 | 250 | B6
28 | 90 | B7

Target: T4, human FcγRIIaR extracellular domain, …
Assay: SPR (BIACORE), captured antibody, FcgR as analyte

Row | Kd [nM] | Binder
29 | 470 | B1
30 | 250 | B2
31 | 470 | B3
32 | 490 | B4
33 | 340 | B5
34 | 490 | B6
35 | 210 | B7

Target: T5, cynomolgus monkey FcγRIIa2 …
Assay: SPR (BIACORE), captured antibody, FcgR as analyte

Row | Kd [nM] | Binder
36 | 1800 | B1
37 | 1300 | B2
38 | 2100 | B3
39 | 2600 | B4
40 | 1800 | B5
41 | 2100 | B6
42 | 1000 | B7

target: T8, human FcγRIIIaV extracellular domain, …; assay: SPR (BIACORE), captured antibody, FcgR as analyte

Row | Kd [nM] | Binder
43 | 5100 | B1
44 | 5500 | B2
45 | 5300 | B3
46 | 5200 | B4
47 | 4600 | B5
48 | 6300 | B6
49 | 5000 | B7

Target: T1, cynomolgus monkey FcγRIIa1 …
Assay: SPR (BIACORE), captured antibody, FcgR as analyte

Row | Kd [nM] | Binder
50 | 2200 | B1
51 | 1400 | B2
52 | 2600 | B3
53 | 1600 | B4
54 | 2000 | B5
55 | 2400 | B6
56 | 1000 | B7

Target: T6, cynomolgus monkey FcγRIIIaS …
Assay: SPR (BIACORE), captured antibody, FcgR as analyte

Row | Kd [nM] | Binder
57 | 1700 | B1
58 | 2000 | B2
59 | 1800 | B3
60 | 1700 | B4
61 | 1600 | B5
62 | 2500 | B6
63 | 1700 | B7

Target: T7, cynomolgus monkey FcγRIIa3 …
Assay: SPR (BIACORE), captured antibody, FcgR as analyte

Row | Kd [nM] | Binder
64 | 4900 | B1
65 | 2600 | B2
66 | 4500 | B3
67 | 5500 | B4
68 | 4800 | B5
69 | 5100 | B6
70 | 2300 | B7
